{"source": "patent US8754034B2", "about": "“Structure-based design of peptide inhibitors of amyloid fibrillation” (The Regents of the University of California, priority 2009, dated 2014)", "key": {"tau K12 [1]": {"biological_target": "T1, tau K12 (Homo sapiens, UniProt P10636)", "T1 construct": "starting Met residue (added initiator methionine before Q244) (N); made in house; host or cells: E. coli BL21 (DE3), vector pNG2 (pET-3b derivative)", "T1 sequence (P10636 186-305 isoform P10636-2)": "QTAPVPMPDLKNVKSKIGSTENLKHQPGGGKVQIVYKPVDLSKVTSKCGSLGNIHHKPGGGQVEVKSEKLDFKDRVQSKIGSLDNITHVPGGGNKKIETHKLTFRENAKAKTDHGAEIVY", "assay": "Fibril formation inhibition assay of tau K12 monitored by ThS fluorescence", "format": "biochemical", "conditions": "for effect on K12 fibrillation, comparison between peptides: ThS fluorescence, ratio not given (FIG. 4); for effect on tau K12 fibrillation (ThS fluorescence): peptide at equimolar ratio with K12; for ratio (concentration) dependence of the delay of K12 fibrillation (lag time): various molar ratios of peptide to K12 (FIGS. 5, 6); for average lag time of K12 fibrillation: peptide at equimolar ratio with K12 (FIG. 10b)", "method": "150 μL reactions containing 50 or 100 μM tau K12, as determined by the micro BCA Protein Assay Kit (Pierce), were incubated in 250 mM sodium phosphate buffer pH 7.4 with 1 mM DTT, 3 μM heparin, and 10 μM ThS (Friedhoff et al., 1998; Perez et al., 1996; Schweers et al., 1995). Peptides were dissolved in 250 mM sodium phosphate buffer pH 7.4 and added at various molar ratios to the reaction mixtures. The fluorescence signal was measured every 15 minutes with excitation and emission wavelengths of 440 and 510 nm, respectively, at 37° C. with continuous shaking at 900 rpm with a diameter of 1 mm in a Varioskan plate reader (Thermo Fisher Scientific, Inc.). Reactions were split into a minimum of 3 replicates in Nunc optically clear bottom, 96-well black plates, sealed with Corning pressure seal tape and monitored for various times. Each experiment was repeated a minimum of four times yielding the same results."}, "amyloid β protein": {"biological_target": "amyloid β protein (Homo sapiens, UniProt P05067)", "sequence (P05067 672-713 limits assumed)": "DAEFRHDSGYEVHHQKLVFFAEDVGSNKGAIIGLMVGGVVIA", "assay": "Amyloid beta fibrillation monitored by thioflavin T fluorescence", "format": "biochemical", "conditions": "thioflavin T fluorescence (FIG. 4b)", "description": "In FIG. 4(b), fibril formation of amyloid beta (abeta) protein is not delayed by addition of D-TLKIVW. Tau K12 fibrillation is monitored by ThS fluorescence and amyloid beta fibrillation is monitored by thioflavin T fluorescence."}, "tau K12 [2]": {"biological_target": "T1, tau K12", "assay": "Electron microscopy of tau K12 fibril formation in the presence of peptides", "format": "biochemical", "conditions": "K12 incubated with peptide, with or without ThS", "method": "5 μL of sample were applied to glow discharged 400 mesh carbon-coated formar films on copper grids (Ted Pella, Inc.) for three minutes. Grids were rinsed twice with distilled water and stained with 1% uranyl acetate for 90 seconds. Grids were examined in a Hitachi H-7000 transmission electron microscope at 75 kEv."}, "tau K12 construct": {"biological_target": "tau K12 construct (UniProt P10636-8 244-274; P10636-8 306-394, limits assumed)", "sequence (P10636 other isoform, or with tags, fused parts or gaps limits assumed)": "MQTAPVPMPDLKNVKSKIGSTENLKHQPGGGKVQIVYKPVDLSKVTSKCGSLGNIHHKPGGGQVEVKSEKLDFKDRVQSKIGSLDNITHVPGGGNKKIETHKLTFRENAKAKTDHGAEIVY", "assay": "cell-based or functional assay"}}, "note": "Entries after “also recorded” stand apart in the source; their conditions may differ. Where no end group is shown, it is not given here. [ ]: non-standard residue; d: D form."}
{"molecule": "D-DYYFEF ([dD][dY][dY][dF][dE][dF]) [D-amino acid peptide designed to pack against the bottom of the VQIVYK atomic structure]", "values": [{"measurement": "effect on K12 fibrillation, comparison between peptides", "setting": "tau K12 [1]", "value": "improved capping over D-DYYFEK"}, {"measurement": "effect on tau K12 fibrillation (ThS fluorescence)", "setting": "tau K12 [1]", "value": "no inhibition"}, {"measurement": "ratio (concentration) dependence of the delay of K12 fibrillation (lag time)", "setting": "tau K12 [1]", "value": "delayed K12 fibrillation in a concentration dependent manner; also recorded: some effect at delaying fibrillation"}]}
{"molecule": "D-DYYFEK ([dD][dY][dY][dF][dE][dK])", "values": [{"measurement": "effect on tau K12 fibrillation (ThS fluorescence)", "setting": "tau K12 [1]", "value": "all peptides except D-DYYFEK systematically delayed fibrillation"}]}
{"molecule": "D-GVIGIA (G[dV][dI]G[dI][dA]) [D-amino acid control peptide, a stereoisomer of an L-amino acid peptide known to aggregate on its own, reference compound]", "values": [{"measurement": "effect on tau K12 fibrillation (ThS fluorescence)", "setting": "tau K12 [1]", "value": "no effect on fibrillation; also recorded: without any effect on fibrillation"}]}
{"molecule": "D-LKTWIV ([dL][dK][dT][dW][dI][dV]) [scrambled peptide of D-TLKIVW, reference compound]", "values": [{"measurement": "effect on K12 fibrillation, comparison between peptides", "setting": "tau K12 [1]", "value": "does not delay the onset of K12 fibrillation"}]}
{"molecule": "D-TIKWVL ([dT][dI][dK][dW][dV][dL]) [scrambled peptide of D-TLKIVW, order of residues scrambled in one face]", "values": [{"measurement": "effect on K12 fibrillation, comparison between peptides", "setting": "tau K12 [1]", "value": "does not delay the onset of K12 fibrillation"}, {"measurement": "effect on tau K12 fibrillation (ThS fluorescence)", "setting": "tau K12 [1]", "value": "some inhibitory effect; also recorded: not nearly as effective as D-TLKIVW"}]}
{"molecule": "D-TIWKVL ([dT][dI][dW][dK][dV][dL]) [scrambled peptide of D-TLKIVW, reference compound]", "values": [{"measurement": "effect on K12 fibrillation, comparison between peptides", "setting": "tau K12 [1]", "value": "does not delay the onset of K12 fibrillation"}]}
{"molecule": "D-TLKIVW ([dT][dL][dK][dI][dV][dW]) [D-amino acid peptide designed to pack against the top of the VQIVYK fibril-like structure of tau]", "values": [{"measurement": "effect on fibril formation of amyloid beta protein", "setting": "amyloid β protein", "value": "no effect on fibrillation; also recorded: not delayed"}, {"measurement": "fibril formation of K12 seen by electron microscopy", "setting": "tau K12 [2]", "value": "there were no fibrils; also recorded: prevents fibril formation; also recorded: fibrils do not form"}, {"measurement": "molar ratio of peptide relative to tau K12 at which a marginal effect on delay of fibrillation was observed", "setting": "tau K12 [1]", "value": "50 fold less peptide relative to tau K12 concentration"}, {"measurement": "time without ThS signal", "setting": "tau K12 [1]; 50 μM K12, peptide at 2-fold and 5-fold excess, some of the samples", "value": "> 300", "unit": "h"}, {"measurement": "time without fibril formation", "setting": "tau K12 [1]; 2-fold or 5-fold excess peptide, some experiment replicates", "value": "more than 2 weeks"}, {"measurement": "effect on K12 fibrillation, comparison between peptides", "setting": "tau K12 [1]", "value": "the most effective peptide; also recorded: delays fibrillation relative to K12 alone"}, {"measurement": "effect on tau K12 fibrillation (ThS fluorescence)", "setting": "tau K12 [1]", "value": "inhibition for several days"}, {"measurement": "average lag time of K12 fibrillation", "setting": "tau K12 [1]", "value": "over 140 hours"}, {"measurement": "effect on tau K12 fibrillation (ThS fluorescence)", "setting": "tau K12 [1]; listed as D-amino acid peptide TLKIVW", "value": "prevents the formation of K12fibrils"}, {"measurement": "ratio (concentration) dependence of the delay of K12 fibrillation (lag time)", "setting": "tau K12 [1]", "value": "delayed longer by higher concentrations of the D-peptide"}]}
{"molecule": "D-TWKLVL ([dT][dW][dK][dL][dV][dL]) [D-amino acid peptide designed to pack against the top of the VQIVYK fibril structure]", "values": [{"measurement": "fibril formation of K12 seen by electron microscopy", "setting": "tau K12 [2]", "value": "Fibrils do not form"}, {"measurement": "fibril formation of K12 seen by electron microscopy", "setting": "tau K12 [2]; listed as DTWKLVL", "value": "there were no fibrils"}, {"measurement": "molar ratio of peptide relative to tau K12 at which a marginal effect on delay of fibrillation was observed", "setting": "tau K12 [1]", "value": "10 fold less peptide relative to tau K12 concentration"}, {"measurement": "duration of effective inhibition of K12 fibrillation", "setting": "tau K12 [1]; 5-fold excess peptide", "value": "about 1 week"}, {"measurement": "peptide concentration relative to K12 at which an inhibitory effect is still seen", "setting": "tau K12 [1]; ThS fluorescence (FIGS. 5, 6)", "value": "10 % the molar concentration of K12"}, {"measurement": "delay of K12 fibrillation", "setting": "tau K12 [1]; peptide at equimolar ratio with K12 (FIG. 3a)", "value": "more than 30 hours"}, {"measurement": "ratio (concentration) dependence of the delay of K12 fibrillation (lag time)", "setting": "tau K12 [1]", "value": "still were inhibiting fibrillation of K12"}]}
{"molecule": "D-YVIIER ([dY][dV][dI][dI][dE][dR]) [D-amino acid peptide designed to pack against the bottom of the VQIVYK fibril structure]", "values": [{"measurement": "effect on tau K12 fibrillation (ThS fluorescence)", "setting": "tau K12 [1]", "value": "some delay"}, {"measurement": "ratio (concentration) dependence of the delay of K12 fibrillation (lag time)", "setting": "tau K12 [1]", "value": "delayed K12 fibrillation in a concentration dependent manner; also recorded: clear ratio dependence"}]}
{"molecule": "L-TLKIVW (SEQ ID NO: 3) [L-amino acid enantiomer of D-TLKIVW]", "values": [{"measurement": "effect on K12 fibrillation, comparison between peptides", "setting": "tau K12 [1]", "value": "able to inhibit fibril formation, but not nearly as long as D-TLKIVW"}, {"measurement": "effect on tau K12 fibrillation (ThS fluorescence)", "setting": "tau K12 [1]", "value": "able to inhibit fibril formation, but not nearly as long as D-TLKIVW; also recorded: not nearly as effective as D-TLKIVW"}, {"measurement": "average lag time of K12 fibrillation", "setting": "tau K12 [1]", "value": "about 40 hours"}]}
{"molecule": "L-VQIVYK (SEQ ID NO: 1) [steric zipper segment of tau, used as control peptide, reference compound]", "values": [{"measurement": "effect on tau K12 fibrillation (ThS fluorescence)", "setting": "tau K12 [1]", "value": "no significant effect on fibrillation"}, {"measurement": "effect on tau K12 fibrillation (ThS fluorescence)", "setting": "tau K12 [1]; listed as VQIVYK", "value": "no effect at equimolar concentrations or in excess"}]}
{"molecule": "[dT][dW][dK][dL][dV][dL] (designed binder)", "note": "[D-TWKLVL]", "values": [{"measurement": "delay of K12 fibrillation at equimolar ratio (ThS fluorescence)", "setting": "tau K12 construct", "value": "> 30", "unit": "h"}, {"measurement": "duration of inhibition of K12 fibrillation at 5-fold excess peptide", "setting": "tau K12 construct", "value": "~1", "unit": "week"}, {"measurement": "molar amount of peptide relative to tau K12 construct to delay fibrillation", "setting": "tau K12 construct", "value": "10 fold less peptide than K12"}]}
{"molecule": "[dT][dI][dK][dW][dV][dL]", "note": "[D-TIKWVL]", "values": [{"measurement": "average lag time of K12 fibrillation (ThS fluorescence), equimolar ratio", "setting": "tau K12 construct", "value": 54, "unit": "h"}]}
{"molecule": "[dT][dL][dK][dI][dV][dW] (designed binder)", "note": "[D-TLKIVW]", "values": [{"measurement": "average lag time of K12 fibrillation (ThS fluorescence), equimolar ratio", "setting": "tau K12 construct", "value": "> 140", "unit": "h"}, {"measurement": "molar amount of peptide relative to tau K12 construct to delay fibrillation", "setting": "tau K12 construct", "value": "50 fold less peptide than K12"}, {"measurement": "time without K12 fibrils at 2-fold or 5-fold excess peptide", "setting": "tau K12 construct", "value": "> 2", "unit": "weeks"}]}
